Test results: FireProtDB (doi:10.1021/bi00123a002)
Values joined by “and” are separate entries in the source; they are usually repeats but may differ in a detail not shown here. Identical values can stand only once.

Settings: Salmonella typhimurium (strain LT2 / SGSC1412 / ATCC 700720), pH 7.8, 25 °C, Urea, CD, Potassium phosphate 10 mM, reversible: yes, whole UniProt chain shown

B1: Tryptophan synthase alpha chain wild type, P00929 (protein)
chain: MERYENLFAQLNDRREGAFVPFVTLGDPGIEQSLKIIDTLIDAGADALELGVPFSDPLADGPTIQNANLRAFAAGVTPAQCFEMLALIREKHPTIPIGLLMYANLVFNNGIDAFYARCEQVGVDSVLVADVPVEESAPFRQAALRHNIAPIFICPPNADDDLLRQVASYGRGYTYLLSRSGVTGAENRGALPLHHLIEKLKEYHAAPALQGFGISSPEQVSAAVRAGAAGAISGSAIVKIIEKNLASPKQMLAELRSFVSAMKAASRA
With B1 the unfolding free energy was 13.2 kcal/mol, the denaturant m value (transition: 3) was 2.68 kcal/mol/M and 1.6 kcal/mol/M and the “denaturant midpoint (higher = more stable)” value (transition: 3) was 2.75 M and 3.64 M. For the same protein, the unfolding free energy (transition: 3) was 7.35 kcal/mol and 5.81 kcal/mol.
